Key:
[1] = CHX chase, FLAG-ESRRB immunoblot, mESCs; settings: glycan lost; control: DMSO
[2] = ESRRB-responsive element luciferase reporter, HEK293T; settings: glycan lost
[3] = GFP immunoprecipitation, ubiquitin blot, HEK293T; settings: glycan lost; control: wild type
[4] = CHX 12 h, immunoblot, HEK293T; settings: glycan lost; control: EGFP-ESRRB wild type
[5] = CHX chase up to 12 h, immunoblot, mESCs; settings: glycan lost; control: FLAG-ESRRB wild type

Row | Protein | degradation_or_half_life [1] | other: transcriptional activity ([2]; control: DMSO) | other: ubiquitination [3] | degradation_or_half_life [4] | degradation_or_half_life [5] | other: transcriptional activity ([2]; control: FLAG-ESRRB wild type)
1 | ESRRB: Ac45SGlcNAc (OGT inhibitor) (protein) parent chain: MSSEDRHLGSSCGSFIKTEPSSPSSGIDALSHHSPSGSSDASGGFGIALSTHANGLDSPPMFAGAGLGGNPCRKSYEDCTSGIMEDSAIKCEYMLNAIPKRLCLVCGDIASGYHYGVASCEACKAFFKRTIQGNIEYNCPATNECEITKRRRKSCQACRFMKCLKVGMLKEGVRLDRVRGGRQKYKRRLDSENSPYLNLPISPPAKKPLTKIVSNLLGVEQDKLYAMPPNDIPEGDIKALTTLCELADRELVFLINWAKHIPGFPSLTLGDQMSLLQSAWMEILILGIVYRSLPYDDKLAYAEDYIMDEEHSRLVGLLDLYRAILQLVRRYKKLKVEKEEFMILKALALANSDSMYIENLEAVQKLQDLLHEALQDYELSQRHEEPRRAGKLLLTLPLLRQTAAKAVQHFYSVKLQGKVPMHKLFLEMLEAKV | decreases | decreases | – | – | – | –
2 | ESRRB: S25A (protein) parent chain: MSSEDRHLGSSCGSFIKTEPSSPSSGIDALSHHSPSGSSDASGGFGIALSTHANGLDSPPMFAGAGLGGNPCRKSYEDCTSGIMEDSAIKCEYMLNAIPKRLCLVCGDIASGYHYGVASCEACKAFFKRTIQGNIEYNCPATNECEITKRRRKSCQACRFMKCLKVGMLKEGVRLDRVRGGRQKYKRRLDSENSPYLNLPISPPAKKPLTKIVSNLLGVEQDKLYAMPPNDIPEGDIKALTTLCELADRELVFLINWAKHIPGFPSLTLGDQMSLLQSAWMEILILGIVYRSLPYDDKLAYAEDYIMDEEHSRLVGLLDLYRAILQLVRRYKKLKVEKEEFMILKALALANSDSMYIENLEAVQKLQDLLHEALQDYELSQRHEEPRRAGKLLLTLPLLRQTAAKAVQHFYSVKLQGKVPMHKLFLEMLEAKV | – | – | increases | decreases | decreases | decreases
